According to the DeepSol protein solubility set:

assay: soluble on expression in E. coli; label from the status in PepcDB or PDB records

Sequence | soluble on expression in E. coli
MGSDKIHHHHHHMNINPTEKLSQPIVEKVAIVGAGPGGLAAAIALRSQGIDVQIYEKAQEFRPAGTGLGLAPNGLNFLDAIAPGIVETLKGSGCEVHHTVLKNFRGETIRANASKYQEKYGQPLVTVWWYRLQQVLASRLPSDIVHLNHRCIGFEQDENGVEIRFDGEKSVYADLLIGADGVNSVIREILFGEGKPNYIGSMCWRAVIKYHHELFNDYELVFVKGNQQFMYLLNVGGGYMSWISRKFSPEYSLCHSADEVKSRILHELADWDESFQVVVQATPAEQIWEGPICDRPPLTHWSQGRVTLLGDAAHPMAPAMGQGANTTFEDAYELRECFSQSANLQEALTSYEQRRMQRTEIIQARSALGEMRYYESNTVASNGQREQTMSVNDDFHKWLYDYKPSATIKF | not soluble
GHMGEEQYNRYQQYGAEECVLQMGGVLCPRPGCGAGLLPEPDQRKVTCEGGNGLGCGFAFCRECKEAYHEGECSAVFEAS | soluble
MSLNALIEELKRLLKECATKKIVVIGECVRDVFVNTQRLSGPSDYQYTITKQLQRREFPGGAYPVARDLSNFVSKVHFVTCSTHEFPTNLERMDVIPISRERISKTRFFSGHNSNIFHYHCVFSEEITLSLTPLQELASVFSEADLVIVLDYGHGLLNSDVRKSISQNARFVALNCQANEDKYPFHQIWKYESTDLLLLNKVEAEINLLKTGVPVQELALRLHSKFKSTYTIVTDAEHGAVIQHDYRAYSSPAMSSCVVDAVGCSDIMLGFAALAAQNGKSAEEILYFASVAAGAKTMINVHERPLSREDLYEIALGVQNEGHHHHHH | not soluble
GPGSMPVANEASSFNVLYALNKCNPKRRRWMNGWLYVNFDRATLVDGISRKAVGVVSGTGLLPNKVFKMMVEADNGAAWEMGTEVVIGQYITQIEGTTRLHLIPYTLFSGVDCIDDNAAEEVSSVELAGSSMTSRVVNVTAGFSATRADAPLSRRKTTEQLISELRGAYPQIFI | not soluble
MTQPAAAVAAAAPAQTAPILGECVLKLSRSTTYEPPLYLFPELLPPVPQGTPPLPVWDAVADAVDIAASSWRVADATQLIAAGVAAAGTSGIKPSTGVERRPQAMVTLTSMIAENRLLAAGLDATVLERDAFSSAAIITHLAALQARMGLSDEEGAAIMSNHFINLLAWQKLRELNGPSLHAAVSRAEQKVSDEEAAGSAAFSPSHAAPPPSRKRSRADQDNDERDVWLPSPHPWATEAELAASDGSGRFVAVSEANVEQQVELLRTLAELYHRPWRTLASRGQQTDFVVPPGTVNVTSPFADNSKVPGALLDPATALGWGATLSSSLSTDYFGGVRVAHTACFYAVVLSAGTPTSAGKSVAPAPTRLPLDELTTYFGRESGVRGAAAVAAAAATPIAGALAPYTTHPEVLSRFQFALVLRPVYEHAADANEVRRPDSHLHVGKREPSTDDEASESDADAHQGHAAVLHTKRPHHYTLWLVNYGRNGVRVAGRGWVLSEPRQLQAGDVLIVGSEVQLRVEEHFSAAAARAPVVSDATLNTASVSSSQVKQERIEG | not soluble
MGSSHHHHHHSSGLVPRGSHMKPVLTVYTYDSFAADWGPGPVVKKAFEADCNCELKLVALEDGVSLLNRLRMEGKNSKADVVLGLDNNLLDAASKTGLFAKSGVAADAVNVPGGWNNDTFVPFDYGYFAFVYDKNKLKNPPQSLKELVESDQNWRVIYQDPRTSTPGLGLLLWMQKVYGDDAPQAWQKLAKKTVTVTKGWSEAYGLFLKGESDLVLSYTTSPAYHILEEKKDNYAAANFSEGHYLQVEVAARTAASKQPELAQKFLQFMVSPAFQNAIPTGNWMYPVANVTLPAGFEKLTKPATTLEFTPAEVAAQRQAWISEWQRAVSR | soluble
AAIAEKDLGNAAYKQKDFEKAHVHYDKAIELDPSNITFYNNKAAVYFEEKKFAECVQFCEKAVEVGRETRADYKLIAKAMSRAGNAFQKQNDLSLAVQWFHRSLSEFRDPELVKKVKELEKQLKAAERLAYINPELAQEEKNKGNEYFKKGDYPTAMRHYNEAVKRDPENAILYSNRAACLTKLMEFQRALDDCDTCIRLDSKFIKGYIRKAACLVAMREWSKAQRAYEDALQVDPSNEEAREGVRNCLRSNDEDPEKAKERSLADPEVQEILRDPGMRMILEQMSNDPGAVREHLKNPEIFQKLMKLRD | not soluble
MGSDKIHHHHHHMFGPGGTQIPNPLRLKRPEGELVWAHATTQERLLGLCDVGCRLKMMRPDLSVMLTWEEDMRPAKLPEGCDIPLGPLTVEQPNDIRNFLDNWSPDVCVWAGGRLRRLLMRHMREREMPALLCDIDADELPSRASRWLPDQRHRLLNGFAAILVPGTEVSERLKRAGVAPERIHPAGRLFQSSTPPSCNDDELAQMQKQFASRPLWLAAHVSLSELPAVLKAHRGALRLLHRLLLVLTVDTFEDLDAARSLLRKEGLSFADWDMGEDPEDHTQVAIGLTENLGLWYRLCPISFLGNSLIRGAQGTNPLDAAALGSAILHGPGVVAHAQAYQRLAALDAAERIHGEEELADAVFRLSSPDRAAEMALAGWQVVTEGAVMTDTLLERIQDLLDQSELSHAPA | not soluble
MGSDKIHHHHHHMSKNDLADLLRVGPETTMGKFMRQYWLPAVLSHEVKADGDPVRLMLLGEKLIAFRDSSGRVGVLDHRCPHRCASLFVGRNEENGIRCVYHGWKFDVDGNCVDMPSVPARLDFKEKVHARAYKAVERNGLIWVYMGENQNNPPPLPAIEANMIPGSKIWCLQRQCNWLQALEGDIDTSHVGFLHVGALQPEDLPEGSPLRPTVLNRAPEYRVQNAEWGATYGAYRLAEDGRMSWRAAQFMFPFWTMTPNILFSTRAIARAWVPMDDTHVMLFDITGGVDEGNPFFTTKLKNGEPMYEKIRRKPNGTGWYDRWLPVDGLQNDWGIDREAQRNMIHYTGIDNPSMQDQAITESMGPITDHSFEHLAPTDQMIAFVRRRLTQALRNFRDDSAPAPCAFSPETYFGARSGAFWADPVVEFSTAYRVELEKAQRWPANPDGSAVEREPEVAR | not soluble
MFSVYAHRVAAVKDEENGAVKKVTDSVENYNSENRFERTIIVANDNKTAILLILRLKQDGVKTSVFTNYLADDEIVLGEQKKAFVEGAHKVAVCTTQMFEKMEFDVVKHYIFVDAPAEEKLRDQLRQKAVCEGKKIRVDLVMSESYEVSVKVEEKPAEASKPSPKRKCSFDIYSIKPNKQGKFVIPAEYMGFDESAEDDEYDSEYDDDDYNPFKWLGF | not soluble
CLAEGTRIFDPVTGTTHRIEDVVYGRKPIHVVAAAKDGTLHARPVVSWFDQGTRDVIGLRIAGGAIVWATPDHKVLTEYGWRAAGELRKGDRVAVRDVETGELRYSVIREVLPTRRARTFDLEVEELHTLVAEGVVVHN | soluble
MNMSSEMLPASIESPNVEEKLGTSDGEEERQEPRVDAGAEPISKRQLKKLMKQKQWEEQREQRKEKRKEKRKRKKLERRQLESNSDGNDRKRVRRDVARSSLRLVIDCSFDDLMVLKDIKKLHKQIQRCYAENRRASHPVQFYLTSHGGQLKKNMDENDQGWVNWKDIHIKSEHYSELIKKEDLVYLTSDSPNVLKDLDESKAYVIGGLVDHSHHKGLTFKQATSYGIEHAQLPLADFVKMNSRKVLAVNHVFEIILEFLETRDWQEAFFTILPQRKGAVPAHKACESSPQDHQSLPEGWDSASEGESCRDNPDSPQKDEQGQQSSPVLQ | soluble
